The term Kd denotes the free concentration of one partner at which half of the binding sites on the other are occupied at equilibrium, for simple one-to-one binding.

Common to all, as to assay: filter
The subject of series [1] is human IgE (Homo sapiens), P01854-1.
The target in series [2] is T1, mouse IgE (Mus musculus) (UniProt P06336).
T1 sequence: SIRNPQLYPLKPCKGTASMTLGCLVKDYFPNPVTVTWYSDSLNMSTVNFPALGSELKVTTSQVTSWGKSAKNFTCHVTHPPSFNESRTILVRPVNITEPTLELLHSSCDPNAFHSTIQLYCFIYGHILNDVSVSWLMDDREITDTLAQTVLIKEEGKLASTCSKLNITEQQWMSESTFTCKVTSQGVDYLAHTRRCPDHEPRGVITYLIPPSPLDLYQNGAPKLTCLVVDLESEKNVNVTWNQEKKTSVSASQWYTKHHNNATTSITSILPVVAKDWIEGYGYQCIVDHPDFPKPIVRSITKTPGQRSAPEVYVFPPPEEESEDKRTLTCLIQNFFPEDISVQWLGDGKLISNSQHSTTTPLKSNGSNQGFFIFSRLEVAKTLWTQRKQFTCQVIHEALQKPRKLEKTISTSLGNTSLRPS

Series [3] concerns the target T2, rat IgE (Rattus norvegicus) (UniProt P01855).
T2 sequence: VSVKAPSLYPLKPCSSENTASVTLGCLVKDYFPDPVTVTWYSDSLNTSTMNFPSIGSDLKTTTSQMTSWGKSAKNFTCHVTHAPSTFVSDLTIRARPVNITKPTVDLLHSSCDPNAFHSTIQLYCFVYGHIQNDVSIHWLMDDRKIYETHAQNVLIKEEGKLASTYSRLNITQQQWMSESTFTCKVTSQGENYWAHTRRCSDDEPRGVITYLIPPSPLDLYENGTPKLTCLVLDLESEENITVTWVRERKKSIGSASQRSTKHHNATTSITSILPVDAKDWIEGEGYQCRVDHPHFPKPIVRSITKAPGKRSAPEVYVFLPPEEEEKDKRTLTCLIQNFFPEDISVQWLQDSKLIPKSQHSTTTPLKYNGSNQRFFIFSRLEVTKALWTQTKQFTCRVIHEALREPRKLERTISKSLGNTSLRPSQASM
The note with it: 2'-NH2 on all C and U; specificity control.

In series [4] the test system is human IgG (Homo sapiens). Conditions: specificity control.
Where [5] appears, read: 2'-NH2 on all C and U, specificity control.
[6] abbreviates: 2'-NH2 on all C and U, starting pool.

Chain of human IgE (Homo sapiens), P01854-1 (P01854 other isoform, or with tags, fused parts or gaps): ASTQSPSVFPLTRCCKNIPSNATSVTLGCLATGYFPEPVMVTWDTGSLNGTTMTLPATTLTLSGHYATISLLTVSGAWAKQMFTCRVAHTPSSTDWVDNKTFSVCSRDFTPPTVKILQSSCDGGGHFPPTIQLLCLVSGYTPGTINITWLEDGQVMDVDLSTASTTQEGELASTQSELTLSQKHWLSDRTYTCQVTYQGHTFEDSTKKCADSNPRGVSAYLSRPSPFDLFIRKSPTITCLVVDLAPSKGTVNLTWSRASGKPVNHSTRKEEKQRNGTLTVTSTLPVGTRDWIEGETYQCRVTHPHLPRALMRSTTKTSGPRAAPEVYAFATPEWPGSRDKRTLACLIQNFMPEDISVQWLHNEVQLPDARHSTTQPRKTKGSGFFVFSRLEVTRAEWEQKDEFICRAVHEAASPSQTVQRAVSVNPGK

As to “CTACCTACGATCTGACTAGCNNNNNNNNNNNNNNNNNNNNNNNNNNNNNNNNNNNNNNNNGCTTACTCTCATGTAGTTCC [40NBHI starting DNA pool]”, the dissociation constant Kd in series [1] (starting pool) was more than 50 µM; in series [2] (starting pool), more than 1000 nM.
On to “CTACCTACGATCTGACTAGCNNNNNNNNNNNNNNNNNNNNNNNNNNNNNNNNNNNNNNNNGCTTACTCTCATGTAGTTCC [Round 15 human IgE DNA pool]”, for which the Kd in series [1] (enriched pool, modified PBS, 1 mM Mg2+, 37 C) is 0.01 µM.
On to “CTACCTACGATCTGACTAGCNNNNNNNNNNNNNNNNNNNNNNNNNNNNNNNNNNNNNNNNGCTTACTCTCATGTAGTTCC [Round 15 mouse IgE DNA pool]”, for which the Kd in series [1] (mouse-IgE-enriched pool against human IgE) was more than 50 µM; in series [2] (enriched pool), 20 nM.
Consider “GGGAGGACGAUGCGGGUGUGAAUGGUGUUGUGAGG [IGEL1.2]”, for which the Kd in series [3] is more than 5 µM; in series [2] (setting [5]), more than 5000 nM.
As for GGGAGGACGAUGCGGGUGUGGGGCG [IGEL2.2], the Kd in series [3] was more than 5 µM; in series [2] (setting [5]), more than 5000 nM.
“GGGAGGACGAUGCGGNNNNNNNNNNNNNNNNNNNNNNNNNNNNNNNNNNNNNNNNCAGACGACUCGCCCGA [40N7 starting RNA pool]” showed a dissociation constant (Kd) in series [1] (setting [6]) of more than 50 µM.
As for “GGGAGGACGAUGCGGNNNNNNNNNNNNNNNNNNNNNNNNNNNNNNNNNNNNNNNNNNNNNNNNNNNNNNNNNNNNCAGACGACUCGCCCGA [60N7 starting RNA pool]”, the Kd in series [1] (setting [6]) was more than 50 µM.
For “GGGGCACGTTTATCCGTCCCTCCTAGTGGCGTGCCCC [D17.4]”, the figures for the Kd in series [4] and in series [2] (specificity control) were more than 10 µM and more than 10000 nM, respectively.

The values above are taken from patent US5686592.
